Laboratory results taken from doi:10.1101/2020.08.14.246132 (bioRxiv, 2020).

Target: DPP9, short isoform (His-TEV-DPP9), co-expressed with NLRP1ΔΔ for cryo-EM (human, UniProt Q86TI2-1 1-863)
Experiment: cryo-EM structure

Sequence of DPP9, short isoform (His-TEV-DPP9), co-expressed with NLRP1ΔΔ for cryo-EM (Q86TI2 whole entry, stated change not applied, canonical isoform): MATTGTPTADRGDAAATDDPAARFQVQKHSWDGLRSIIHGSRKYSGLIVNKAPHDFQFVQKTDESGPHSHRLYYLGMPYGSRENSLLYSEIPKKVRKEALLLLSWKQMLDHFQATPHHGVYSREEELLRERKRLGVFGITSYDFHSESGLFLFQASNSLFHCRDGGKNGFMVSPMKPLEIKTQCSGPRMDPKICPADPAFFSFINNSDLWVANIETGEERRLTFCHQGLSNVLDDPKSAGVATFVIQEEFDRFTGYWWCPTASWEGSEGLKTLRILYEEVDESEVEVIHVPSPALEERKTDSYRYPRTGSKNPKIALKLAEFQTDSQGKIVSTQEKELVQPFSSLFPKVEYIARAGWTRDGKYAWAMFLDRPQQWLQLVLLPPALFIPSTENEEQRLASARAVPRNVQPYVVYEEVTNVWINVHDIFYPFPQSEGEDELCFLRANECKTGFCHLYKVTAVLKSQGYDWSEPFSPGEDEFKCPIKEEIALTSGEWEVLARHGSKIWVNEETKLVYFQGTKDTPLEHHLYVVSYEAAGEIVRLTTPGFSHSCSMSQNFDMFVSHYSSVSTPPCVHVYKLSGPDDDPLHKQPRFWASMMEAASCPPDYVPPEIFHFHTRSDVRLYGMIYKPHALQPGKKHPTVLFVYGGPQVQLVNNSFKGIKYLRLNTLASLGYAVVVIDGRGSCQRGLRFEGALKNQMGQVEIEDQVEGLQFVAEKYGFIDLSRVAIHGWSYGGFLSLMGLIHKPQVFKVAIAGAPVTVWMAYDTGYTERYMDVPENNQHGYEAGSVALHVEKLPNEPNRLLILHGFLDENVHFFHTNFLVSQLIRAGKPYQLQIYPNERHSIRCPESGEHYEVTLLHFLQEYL

B1: NLRP1-CT freed from NLRP1ΔΔ (UPA subdomain only), molecule B of the NLRP1^A-NLRP1^B-DPP9 ternary complex (domain or fragment, human, UniProt Q9C000-1 1213-1364, looked up)
chain: SPLGVLLKMIHNALRFIPVTSVVLLYHRVHPEEVTFHLYLIPSDCSIRKAIDDLEMKFQFVRIHKPPPLTPLYMGCRYTVSGSGSGMLEILPKELELCYRSPGEDQLFSEFYVGHLGSGIRLQVKDKKDETLVWEALVKPGDLMPATTLIPP
B1: binds.
